Assay results as given in publication doi:10.1101/444570 (bioRxiv, 2018).
Values belong to the binder of their own block, whether it stands above or below them.

Key:
[1] = target: COMA complex (Ame1/Okp1/Ctf19/Mcm21) (S. cerevisiae (budding yeast), UniProt P38313;P53298;Q02732;Q06675); experiment: cross-linking
[2] = target: Ctf19/Mcm21 heterodimer (wild type) (S. cerevisiae (budding yeast), UniProt Q02732;Q06675); experiment: pull-down
Sequence of Ctf19/Mcm21 heterodimer (wild type) (Q02732 whole entry, chain 1 of 2): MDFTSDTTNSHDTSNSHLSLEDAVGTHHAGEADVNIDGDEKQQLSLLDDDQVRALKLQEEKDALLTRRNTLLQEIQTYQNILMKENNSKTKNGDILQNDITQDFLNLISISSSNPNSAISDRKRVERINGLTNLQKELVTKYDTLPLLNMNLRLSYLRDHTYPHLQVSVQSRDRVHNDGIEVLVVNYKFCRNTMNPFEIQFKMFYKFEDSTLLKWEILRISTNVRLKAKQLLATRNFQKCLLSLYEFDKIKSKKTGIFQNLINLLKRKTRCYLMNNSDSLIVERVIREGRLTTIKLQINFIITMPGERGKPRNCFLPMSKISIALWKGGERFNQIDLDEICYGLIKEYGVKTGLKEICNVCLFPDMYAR
Sequence of Ctf19/Mcm21 heterodimer (wild type) (Q06675 whole entry, chain 2 of 2): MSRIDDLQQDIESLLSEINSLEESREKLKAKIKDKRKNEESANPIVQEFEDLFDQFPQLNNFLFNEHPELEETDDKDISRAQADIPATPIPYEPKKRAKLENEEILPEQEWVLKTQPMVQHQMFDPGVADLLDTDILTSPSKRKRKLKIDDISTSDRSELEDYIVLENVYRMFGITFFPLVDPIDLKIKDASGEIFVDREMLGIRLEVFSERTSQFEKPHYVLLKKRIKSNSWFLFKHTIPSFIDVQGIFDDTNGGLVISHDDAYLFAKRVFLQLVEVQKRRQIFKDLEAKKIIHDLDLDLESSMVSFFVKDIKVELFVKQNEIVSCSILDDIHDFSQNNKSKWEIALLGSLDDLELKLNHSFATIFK

Sequence of COMA complex (Ame1/Okp1/Ctf19/Mcm21) (P38313 whole entry, chain 1 of 4): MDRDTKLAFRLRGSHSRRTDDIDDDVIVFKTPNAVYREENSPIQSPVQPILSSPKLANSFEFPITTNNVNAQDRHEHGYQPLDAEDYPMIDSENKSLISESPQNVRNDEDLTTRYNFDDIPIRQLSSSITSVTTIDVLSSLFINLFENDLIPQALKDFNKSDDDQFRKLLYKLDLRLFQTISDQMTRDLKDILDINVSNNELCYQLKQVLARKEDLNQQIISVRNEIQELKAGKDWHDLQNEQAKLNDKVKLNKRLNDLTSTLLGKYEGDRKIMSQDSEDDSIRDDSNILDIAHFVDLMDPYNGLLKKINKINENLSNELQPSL
Sequence of COMA complex (Ame1/Okp1/Ctf19/Mcm21) (P53298 whole entry, chain 2 of 4): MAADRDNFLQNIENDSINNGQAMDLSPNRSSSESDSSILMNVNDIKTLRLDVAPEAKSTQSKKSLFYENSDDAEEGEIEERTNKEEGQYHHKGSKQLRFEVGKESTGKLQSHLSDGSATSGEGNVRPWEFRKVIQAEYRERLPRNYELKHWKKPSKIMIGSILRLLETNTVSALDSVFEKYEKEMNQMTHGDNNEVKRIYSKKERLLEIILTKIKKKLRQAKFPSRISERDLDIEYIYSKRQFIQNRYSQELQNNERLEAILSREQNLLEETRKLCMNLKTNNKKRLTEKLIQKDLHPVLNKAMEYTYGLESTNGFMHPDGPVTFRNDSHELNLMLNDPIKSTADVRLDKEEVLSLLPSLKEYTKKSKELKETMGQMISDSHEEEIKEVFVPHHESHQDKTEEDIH
Sequence of COMA complex (Ame1/Okp1/Ctf19/Mcm21) (Q02732 whole entry, chain 3 of 4): as the sequence (Q02732 whole entry, chain 1 of 2) above
Sequence of COMA complex (Ame1/Okp1/Ctf19/Mcm21) (Q06675 whole entry, chain 4 of 4): as the sequence (Q06675 whole entry, chain 2 of 2) above

binding result [1]: binds
B1: Sli15-2xStrep/Ipl1 (wild type, not phosphorylated) (complex)
chain 1: MDWAIKAARKKTQRKPGSTRSIIETLDDLNNLTTDAHSEINQRLYESSEWLRNNVYMNTLKYEDKKMEESLISPENTHNKMDVEFPKMKGEYELSNSQNDAAKDVTKTPRNGLHNDKSITPKSLRRKEVTEGMNRFSIHDTNKSPVEPLNSVKVDANESEKSSPWSPYKVEKVLRESSKTSESPINTKRFDNQTWAAKEEMENEPILQALKKAESVKVKPPPNSGIARSQRRSNMFVPLPNKDPLIIQHIPPTKSSGSIPKVRTVKESPIAFKKKSTINSPAIRAVENSDTAGSTKASSVFDRLSSIPTKSFENKISRGNVGHKYSSSSIDLTGSPMKKVSQKFKSINSTDTDMQEALRDIFSVKNKITKNNSPKGKNSRKSSIPRFDKTSLKLTTHKKLAIIAEQKKKSKHSSDVHKTGSRPHSISPTKISVDSSSPSKEVKNYYQSPVRGYLRPTKASISPNKNKNLTTSQTPHRLKIKEKTLRKLSPNIADISKPESRKSKNYRLTNLQLLPPAEAERDDLKKKFDKRLSGIMRSQQEHHRRKQEKQKRMSHLEQDLKKQTSFSNDYKDIRLKESLAPFDNHVRDTINKNTAFSTDNILATINTVDHREIIGNVTPKIASVNDSLPEINTDSEDEASVTLAAWAKSPYLQEQLIRQQDINPQTIFGPIPPLHTDEIFPNPRLNRLKPRQIVPKRS
chain 2: MQRNSLVNIKLNANSPSKKTTTRPNTSRINKPWRISHSPQQRNPNSKIPSPVREKLNRLPVNNKKFLDMESSKIPSPIRKATSSKMIHENKKLPKFKSLSLDDFELGKKLGKGKFGKVYCVRHRSTGYICALKVMEKEEIIKYNLQKQFRREVEIQTSLNHPNLTKSYGYFHDEKRVYLLMEYLVNGEMYKLLRLHGPFNDILASDYIYQIANALDYMHKKNIIHRDIKPENILIGFNNVIKLTDFGWSIINPPENRRKTVCGTIDYLSPEMVESREYDHTIDAWALGVLAFELLTGAPPFEEEMKDTTYKRIAALDIKMPSNISQDAQDLILKLLKYDPKDRMRLGDVKMHPWILRNKPFWENKRL

binding result [2]: binds
B2: Sli15∆N2-370-2xStrep/Ipl1 (complex)
chain 1: MNNSPKGKNSRKSSIPRFDKTSLKLTTHKKLAIIAEQKKKSKHSSDVHKTGSRPHSISPTKISVDSSSPSKEVKNYYQSPVRGYLRPTKASISPNKNKNLTTSQTPHRLKIKEKTLRKLSPNIADISKPESRKSKNYRLTNLQLLPPAEAERDDLKKKFDKRLSGIMRSQQEHHRRKQEKQKRMSHLEQDLKKQTSFSNDYKDIRLKESLAPFDNHVRDTINKNTAFSTDNILATINTVDHREIIGNVTPKIASVNDSLPEINTDSEDEASVTLAAWAKSPYLQEQLIRQQDINPQTIFGPIPPLHTDEIFPNPRLNRLKPRQIVPKRS
chain 2: B1 chain 2
